Reference: US20230416329A1 (INSTITUTE OF MATERIA MEDICA CHINESE ACADEMY OF MEDICAL …, published 2023)
Bridge positions count the residues as written; N and C are the ends. Ends that are not written are not given here.

How the values were obtained:
PCSK9 protein [1] = target: T1, PCSK9 protein (UniProt Q8NBP7 31-692, limits assumed); assay: PCSK9-LDLR in vitro binding assay kit, OD450/540; peptide 10 µM; inhibition of PCSK9 binding to LDLR
T1 construct: Kit reagent; also called proprotein convertase subtilisin/kexin type 9
Procedure: (§1) Solvent control: replace polypeptide with 5 μL solvent.
(§2) ^aThe concentration of samples in the table was 50 μM.

PCSK9 protein [2] = target: T1, PCSK9 protein; assay: PCSK9-LDLR in vitro binding assay kit, OD450/540; peptide 100 µM; inhibition of PCSK9 binding to LDLR
Procedure: as §1, §2

[3] = target: porcine pancreatic elastase (porcine, UniProt P00772 27-266); assay: elastase inhibition in vitro
Procedure: (§3) The substrates N-succinyl-Ala-Ala-Pro-Phe-p-nitroaniline (AAPFpNA), Nα—Benzoyl-L-arginine-4-nitroaniline hydrochloride (BApNA) and N-succinyl-[…] (AAApNA) are used in competitive binding reaction to determine the inhibitory activities against α-chymotrypsin, bovine trypsin, and porcine pancreatic elastase, respectively. Experiments for α-chymotrypsin and bovine trypsin inhibition were measured in 20 mM CaCl₂, 50 mM Tris-HCl buffer (pH 7.8), and that for porcine elastase inhibition was measured in 50 mM Tris-HCl buffer (pH 8.0). The concentration of the peptide was measured using optical density (OD) at 280 nm. The Michaelis constant (Kₘ) of the enzyme hydrolysis substrate is calculated from the initial rate of substrate hydrolysis at 405 nm. The absorbance value of the substrate was measured at 405 nm after complete hydrolysis. All data were processed using nonlinear regression.
(1) Added a total 190 μL of different concentrations of peptides (ECs) against elastase and reaction buffer (20 mM CaCl₂, 50 mM Tris-HCl buffer (pH 8.0)) into the pre-cold 96 well plate, followed by preheating at 37° C. for 5 min and centrifugated at 500 rpm for 1 min and allowed to stand for 4 minutes. […] Finally, added 2 μL of 100 mM AAApNA, and mixed by centrifugation at 500 rpm for 1 min. The plate was incubated at 37° C. for 60 min, and the absorbance value at 405 nm was measured. Three repetitions were made, and only reaction buffer and substrate were added in the blank control as the minimum absorption value (Min OD_{405 nm}); Only reaction buffer, enzyme and substrate were added in the negative control as the maximum absorption value (Max OD₄₀₅ nm). [0472] (2) In the 200 μL of reaction system, the final concentrations of elastase and AAApNA were 0.5 μM and 1 mM, respectively. [0473] (3) Data statistics

PCSK9 protein [4] = target: T1, PCSK9 protein; assay: PCSK9-LDLR in vitro binding assay kit, OD450/540; peptide 50 µM, PCSK9 75 ng/mL; inhibition of PCSK9 binding to LDLR
bovine trypsin [5] = target: T2, bovine trypsin (bovine, UniProt P00760 24-246); assay: trypsin (50 nM) BApNA hydrolysis, OD405; peptide at 0.98 µM
Procedure: as §3
(§4) (1) Added a total 190 μL of reaction buffer (20 mM CaCl₂ and 50 mM Tris-HCl, pH 7.8) along with different concentrations of anti-trypsin peptides (BTs) into the pre-cooled 96-well plate, followed by preheating at 37° C., and spined down at 500 rpm for 5 min. Next added 10 μL of 1 μM trypsin, incubated at 37° C., and then spined down at 500 rpm for 10 min. Finally, added 5 μL of 50 mM BApNA, and mixed by centrifugation at 500 rpm for 1 min. […] The experiment was performed in triplicate. The blank control only contained the reaction buffer and the substrate as the minimum absorption value (Min OD_{405 nm}). The negative control only contained the reaction buffer, the enzyme and the substrate as the maximum absorption value (Max OD_{405 nm}). […] (2) In the reaction system of 205 μL, the final concentrations of trypsin and BApNA were 50 nM and 1.22 mM, respectively. [0456] (3) Data statistics

bovine trypsin [6] = target: T2, bovine trypsin; assay: trypsin (50 nM) BApNA hydrolysis, OD405; peptide at 9.76 µM
Procedure: as §3, §4

bovine trypsin [7] = target: T2, bovine trypsin; assay: trypsin (50 nM) BApNA hydrolysis, OD405; peptide at 0.98 µM; remark: listed apart in the source
bovine trypsin [8] = target: T2, bovine trypsin; assay: trypsin (50 nM) BApNA hydrolysis, OD405; peptide at 9.76 µM; remark: listed apart in the source
bovine trypsin [9] = target: T2, bovine trypsin; assay: trypsin (50 nM) BApNA hydrolysis, OD405; peptide at 0.098 µM
Procedure: as §3, §4

bovine trypsin [10] = target: T2, bovine trypsin; assay: trypsin (50 nM) BApNA hydrolysis, OD405; peptide at 97.56 µM
Procedure: as §3, §4

bovine trypsin [11] = target: T2, bovine trypsin; assay: trypsin (50 nM) BApNA hydrolysis, OD405; peptide at 0.098 µM; remark: listed apart in the source
bovine trypsin [12] = target: T2, bovine trypsin; assay: trypsin (50 nM) BApNA hydrolysis, OD405; peptide at 0.0098 µM
Procedure: as §3, §4

bovine trypsin [13] = target: T2, bovine trypsin; assay: as above; remark: listed apart in the source
bovine trypsin [14] = target: T2, bovine trypsin; assay: trypsin (50 nM) BApNA hydrolysis, OD405; peptide at 0.00098 µM
bovine trypsin [15] = target: T2, bovine trypsin; assay: as above; remark: listed apart in the source

T2 sequence (P00760 24-246): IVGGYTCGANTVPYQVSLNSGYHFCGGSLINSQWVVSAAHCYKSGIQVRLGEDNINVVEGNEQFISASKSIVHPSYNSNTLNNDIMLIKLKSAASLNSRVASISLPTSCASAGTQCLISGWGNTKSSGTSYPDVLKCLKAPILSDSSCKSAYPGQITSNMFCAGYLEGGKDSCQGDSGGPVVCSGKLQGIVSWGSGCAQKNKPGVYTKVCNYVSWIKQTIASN
Sequence of porcine pancreatic elastase (P00772 27-266 limits assumed): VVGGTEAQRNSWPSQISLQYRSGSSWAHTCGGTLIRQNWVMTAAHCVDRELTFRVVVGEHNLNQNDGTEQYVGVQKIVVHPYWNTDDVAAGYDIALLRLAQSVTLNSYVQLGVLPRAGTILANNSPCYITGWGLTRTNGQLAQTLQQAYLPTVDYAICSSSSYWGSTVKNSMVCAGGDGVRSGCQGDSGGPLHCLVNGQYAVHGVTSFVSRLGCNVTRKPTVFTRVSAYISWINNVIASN

B1: PCSK9_2EC (peptide)
peptide: TVFTSWEEALDWVGICTASIPPICQ-OH
modifications: disulfide 16-24 (inferred)
notes: Contains an anti-elastase scaffold, with a disulfide bond between its two Cys
- Inhibitory rate (%) (PCSK9 protein [1]): 73.1%
- Inhibitory rate (%) (PCSK9 protein [2]): 100%

B2: PCSK9_9CH (peptide)
peptide: TVFTSGFCTYSIPPQCYGWEEYLDWV
modifications: disulfide 8-16 (inferred)
notes: Contains an anti-chymotrypsin scaffold, with a disulfide bond between its two Cys
- Inhibitory rate (%) (PCSK9 protein [1]): 98.4%
- Inhibitory rate (%) (PCSK9 protein [2]): 102%

Binder: LCTASIPPICQ (disulfide 2-10 (inferred)) [EC12]
- binding result [3]: binds

Binder: LCTASIPPQCQ (disulfide 2-10 (inferred)) [EC18]
- binding result [3]: binds

Binder: VCTASIPPICQ (disulfide 2-10 (inferred)) [EC22]
- binding result [3]: binds

Binder: LCTASIPPQCY (disulfide 2-10 (inferred)) [EC1]
- binding result [3]: binds

Binder: YCTASIPPICQ (disulfide 2-10 (inferred)) [EC29]
- binding result [3]: binds

Binder: ICTASIPPICQ (disulfide 2-10 (inferred)) [EC23]
- binding result [3]: binds

Binder: LCTASNPPICQ (disulfide 2-10 (inferred)) [EC25]
- binding result [3]: binds

B3: PCSK9_3CH (peptide)
peptide: FCTYSIPPQCYGGTVFTSWEEALDWV
modifications: disulfide 2-10 (inferred)
notes: as for B2
- Inhibitory rate (%) (PCSK9 protein [4]): 99.2%

B4: PCSK9_8 (peptide)
peptide: TVFTSGCGRATKSIPPICFSWEEYLDWV
modifications: disulfide 7-18 (inferred)
notes: Hybrid with the anti-trypsin scaffold BT9; A disulfide bond joins the two Cys of the scaffold
- Inhibitory rate (%) (PCSK9 protein [4]): 75.7%

B5: PCSK9_9EC (peptide)
peptide: TVFTSGICTASIPPICQWEEYLDWV
modifications: disulfide 8-16 (inferred)
notes: as for B1
- Inhibitory rate (%) (PCSK9 protein [1]): 94.3%
- Inhibitory rate (%) (PCSK9 protein [2]): 101%

Binder: WEEALDWVCGRATKSIPPICFGYVANDLKI (disulfide 9-20 (inferred)) [PCSK9_12]
- Inhibitory rate (%) (PCSK9 protein [4]): 44.7%

B6: PCSK9_5EC (peptide)
peptide: WEEALDWVGICTASIPPICQGTVFTS
modifications: disulfide 11-19 (inferred)
notes: as for B1
- Inhibitory rate (%) (PCSK9 protein [1]): 85.2%
- Inhibitory rate (%) (PCSK9 protein [2]): 95.3%

B7: PCSK9_6EC (peptide)
peptide: WEEYLDYVGICTASIPPICQGTVFTS
modifications: disulfide 11-19 (inferred)
notes: as for B1
- Inhibitory rate (%) (PCSK9 protein [1]): 96.7%
- Inhibitory rate (%) (PCSK9 protein [2]): 99.4%

B8: PCSK9_3EC (peptide)
peptide: ICTASIPPICQGTVFTSWEEALDWV
modifications: disulfide 2-10 (inferred)
notes: as for B1
- Inhibitory rate (%) (PCSK9 protein [4]): 99.6%

B9: PCSK9_5CH (peptide)
peptide: WEEALDWVGFCTYSIPPQCYGTVFTS
modifications: disulfide 11-19 (inferred)
notes: as for B2
- Inhibitory rate (%) (PCSK9 protein [1]): 99.4%

B10: PCSK9_6CH (peptide)
peptide: WEEYLDYVGFCTYSIPPQCYGTVFTS
modifications: disulfide 11-19 (inferred)
notes: as for B2
- Inhibitory rate (%) (PCSK9 protein [1]): 75.3%
- Inhibitory rate (%) (PCSK9 protein [2]): 93.7%

Binder: GTNEALDNNCGRATKSIPPICFVANDLK (disulfide 10-21 (inferred)) [PCSK9_11]
- Inhibitory rate (%) (PCSK9 protein [4]): 3.6%

Binder: GTNEALDNNCGRATKSIPPICFGTVFTS (disulfide 10-21 (inferred)) [PCSK9_14]
- Inhibitory rate (%) (PCSK9 protein [4]): -8.7%

Binder: CGTATKSIPPICF (disulfide 1-12 (inferred), synthetic) [BT25]
- Residual trypsin activity (%) (bovine trypsin [5]): 49.7%
- Residual trypsin activity (%) (bovine trypsin [6]): 1%
- Residual trypsin activity (%) (bovine trypsin [7]): 49.7%
- Residual trypsin activity (%) (bovine trypsin [8]): 1%
- Residual trypsin activity (%) (bovine trypsin [9]): 100%
- Residual trypsin activity (%) (bovine trypsin [10]): 0.2%
- Residual trypsin activity (%) (bovine trypsin [11]): 100%
- Residual trypsin activity (%) (bovine trypsin [12]): 99.6%
- Residual trypsin activity (%) (bovine trypsin [13]): 99.6%
- Residual trypsin activity (%) (bovine trypsin [14]): 101%
- Residual trypsin activity (%) (bovine trypsin [15]): 101%

Binder: CGRAAKSIPPICF (disulfide 1-12 (inferred), synthetic) [BT26]
- Residual trypsin activity (%) (bovine trypsin [5]): 94.5%
- Residual trypsin activity (%) (bovine trypsin [6]): 0.4%
- Residual trypsin activity (%) (bovine trypsin [7]): 94.5%
- Residual trypsin activity (%) (bovine trypsin [8]): 0.4%
- Residual trypsin activity (%) (bovine trypsin [9]): 100%
- Residual trypsin activity (%) (bovine trypsin [10]): 0.1%
- Residual trypsin activity (%) (bovine trypsin [11]): 100%
- Residual trypsin activity (%) (bovine trypsin [12]): 99.5%
- Residual trypsin activity (%) (bovine trypsin [13]): 99.5%

B11: PCSK9_7 (peptide)
peptide: TVFTSGCGRATKSIPPICFWEEYLDWV
modifications: disulfide 7-18 (inferred)
notes: as for B4
- Inhibitory rate (%) (PCSK9 protein [4]): 80.7%

B12: PCSK9_5 (peptide)
peptide: WEEALDWVCGRATKSIPPICFGTVFTS
modifications: disulfide 9-20 (inferred)
notes: as for B4
- Inhibitory rate (%) (PCSK9 protein [4]): 77.9%

B13: PCSK9_6 (peptide)
peptide: WEEYLDYVCGRATKSIPPICFGTVFTS
modifications: disulfide 9-20 (inferred)
notes: as for B4
- Inhibitory rate (%) (PCSK9 protein [4]): 87%

B14: PCSK9_2CH (peptide)
peptide: TVFTSWEEALDWVGFCTYSIPPQCYG
modifications: disulfide 16-24 (inferred)
notes: as for B2
- Inhibitory rate (%) (PCSK9 protein [4]): 100%

B15: PCSK9_9 (peptide)
peptide: TVFTSGRCTKSIPPICFWEEYLDWV
modifications: disulfide 8-16 (inferred)
notes: Hybrid with the anti-trypsin scaffold BT45; A disulfide bond joins the two Cys of the scaffold
- Inhibitory rate (%) (PCSK9 protein [4]): 93.9%

Binder: GTNEALDNNCGRATKSIPPICFYVANDLKI (disulfide 10-21 (inferred)) [PCSK9_10]
- Inhibitory rate (%) (PCSK9 protein [4]): -18.5%
